# Assay results reported in the supplement of paper PMC12764529.
# ± gives the half width of the 95% confidence interval.
# Legend:
# [1] = folding stability dG unfold from chymotrypsin proteolysis; higher = more stable
# Description: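 Folding stability of de novo designed mini-proteins (<80 aa, no Cys; designed by TrROS, TrMRF, ProteinMPNN and the joint model) was measured by cDNA display proteolysis with trypsin and chymotrypsin. Each protease was used at 11 concentrations in a threefold dilution series plus a no-protease condition. K50 was inferred by Bayesian fitting of sequencing counts, and dG unfold was derived against a sequence-predicted unfolded-state K50 (Tsuboyama et al. method). Sequences shown include variable-length N-terminal GS-type padding (SAGGSAGG...) inside a display construct carrying a PA tag. Rows were kept only if the AF2 dimer inter-PAE was >15, to exclude likely homo-oligomers.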
# [2] = folding stability dG unfold (combined trypsin and chymotrypsin); higher = more stable
# Procedure, shortened: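 Sequencing followed digestion of designed mini-proteins with trypsin and chymotrypsin, each at 11 concentrations in threefold dilutions together with a no-protease condition. The mini-proteins were under 80 residues, had no cysteine, sat in a PA-tagged cDNA display construct, and were kept only if AlphaFold2 dimer inter-PAE was above 15. From the counts, Bayesian fitting gave K50, and unfolding free energy was derived against a sequence-predicted unfolded-state K50 and a shared folded-state K50, per protease or combined.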
Sequence,folding stability dG unfold [1],folding stability dG unfold [2]
SAGGSAGGLLPDQRVRLRLTRTSPDGEPEEATVELTNIPSSITPSSTLTFPGEGDTWEVEEITTSAGGSAGG [r6_560_TrMRF],-0.184 ± 0.21 kcal/mol,< -1 kcal/mol
SAGGSAGGMSLEEAVEEAAAAVSPDETAEVVLTVEVSEPLTFPEPPDRLVTRPRTVRVRVRAPASAGGSAGG [r6_543_JUSTAS],0.488 ± 0.11 kcal/mol,0.319 ± 0.19 kcal/mol
SAGGSAGGMTARKTYEVEVPADDPDALADLAFDLPAGDTVYFRTPGPDLRAVVTDDVPVVEPAGSAGGSAGG [r6_550_TrMRF],0.0243 ± 0.18 kcal/mol,< -1 kcal/mol
SAGGSAGGMTIPLPGSVEEIQELLGGPIKEYTEEAPGSGTLTLPNGTPITVERESPELLKEVLRSAGGSAGG [r6_19_JUSTAS],-0.0581 ± 0.16 kcal/mol,-0.593 ± 0.37 kcal/mol
SAGGSAGGMTPEEIRDALAAKLRAADPDVEVRPVRQEGDEVVVVVTRPATGERREVRVPADVPLSAGGSAGG [r6_446_JUSTAS],0.406 ± 0.19 kcal/mol,-0.0965 ± 0.18 kcal/mol
SAGGSAGGNPDTPVLTRKTSETFNIAPGEVVKFPDSSVVTPTEDGTYTIDKTITYNGPPDKPLTSAGGSAGG [r6_635_JUSTAS],0.345 ± 0.13 kcal/mol,-0.279 ± 0.23 kcal/mol
SAGGSAGGSAAEPPPPATIEVLVLNEDGYVYRAEIRVNEDGEITIEVEKIPVKPGESLEELSAGGSAGGSAG [r3_437_TrROS_Hall],4 ± 0.23 kcal/mol,3.79 ± 0.35 kcal/mol
SAGGSAGGSAAPEALPPRLVVPRPVLIVDKAPLEEVEVEELRKAAEEFARAVPDAVVLVDEESAGGSAGGSA [r18_499_TrMRF],0.788 ± 0.12 kcal/mol,0.0223 ± 0.23 kcal/mol
SAGGSAGGSAGAPSAPRSVPEVRLLNIDIPASADDPESVELARRLARAALENDAVVVINESAGGSAGGSAGG [r11_519_TrMRF],0.826 ± 0.11 kcal/mol,0.268 ± 0.11 kcal/mol
SAGGSAGGSAGAPVEVVITFESPTSRTTRTFPADLPEAEVERLAAALRAAHPEPVRVEPRSAGGSAGGSAGG [r11_515_JUSTAS],-0.981 ± 0.48 kcal/mol,< -1 kcal/mol
SAGGSAGGSAGASSLTLEELLKLHPGTVVRKERVELVEGKLVIDLVVEKVDPDTDKLTPESAGGSAGGSAGG [r11_20_JUSTAS],0.893 ± 0.043 kcal/mol,0.409 ± 0.14 kcal/mol
SAGGSAGGSAGAVTVTVDAAPDPLPDREYVVVTVERTLPSGEVLAESRVFDRAEEALEAASAGGSAGGSAGG [r11_792_TrMRF],0.432 ± 0.14 kcal/mol,-0.209 ± 0.26 kcal/mol
SAGGSAGGSAGAWTDPDGNPYEVKEATVASLGPENPIVLVRFSENGELRLVPLEQALADLSAGGSAGGSAGG [r17_517_TrMRF],0.558 ± 0.16 kcal/mol,-0.0575 ± 0.25 kcal/mol
SAGGSAGGSAGDPNYVQVTIRMPMERRNPEDGKWERNPMEITIPFKSKDQADKIAEEIGISAGGSAGGSAGG [r11_984_TrROS],-0.0109 ± 0.18 kcal/mol,-0.375 ± 0.23 kcal/mol
SAGGSAGGSAGEAAIEAAIAANSPDKDATVALPGGETVRLKFTRDPKVPTLLSLDVEREPPRSAGGSAGGSA [r18_202_JUSTAS],-0.61 ± 0.29 kcal/mol,< -1 kcal/mol
SAGGSAGGSAGEIVIDVEPNMTVEEVKKRIKALAEELKKEKGLEIKKIEIKEGMSVEELLSAGGSAGGSAGG [r17_43_TrROS_Hall],0.225 ± 0.077 kcal/mol,-0.00172 ± 0.13 kcal/mol
SAGGSAGGSAGEVLIVAPAALLKEAIGPGVEVLAVDDDVVVVRVPVPPVPLTDANGNPLPSAGGSAGGSAGG [r11_828_TrMRF],0.598 ± 0.047 kcal/mol,-0.15 ± 0.3 kcal/mol
SAGGSAGGSAGGAKPVTFTFPDGTKAVSVEETPTSVVLYDPGPGALYVLDKETKTITPASAGGSAGGSAGGS [r10_289_TrMRF],-0.512 ± 0.29 kcal/mol,-0.72 ± 0.34 kcal/mol
SAGGSAGGSAGGDPIRVDDIEPNPDRLEIDIRNFGNGNQKKHTIPPGSPPKIKPGDYIRSAGGSAGGSAGGS [r10_834_TrROS],0.857 ± 0.12 kcal/mol,0.229 ± 0.26 kcal/mol
SAGGSAGGSAGGEARDNGVPTIEIPIPPEFKKGMPAEQMVDQLAKQLPPGVKDIHIEPPPSAGGSAGGSAGG [r7_487_TrROS],0.744 ± 0.035 kcal/mol,0.376 ± 0.13 kcal/mol
SAGGSAGGSAGGEVITVKRPDGTPFDVTAVLSEDPVVPLLTVEATDDGPVVTLDVPASLLSAGGSAGGSAGG [r7_236_JUSTAS],0.207 ± 0.16 kcal/mol,-0.172 ± 0.26 kcal/mol

Sequence,folding stability dG unfold [1],folding stability dG unfold [2]
SAGGSAGGSAGGEVPADAVIEERLEVTDVSTGEKRRFRRTVTVEVDPDGSLRVRTEVEEESAGGSAGGSAGG [r7_19_JUSTAS],-0.184 ± 0.63 kcal/mol,-0.215 ± 0.3 kcal/mol
SAGGSAGGSAGGGATVTETRTEFVPPTGIVRVESVVTYPDGSTRRTSSVVVVERPGAQPSAGGSAGGSAGGS [r10_290_JUSTAS],0.872 ± 0.03 kcal/mol,0.386 ± 0.13 kcal/mol
SAGGSAGGSAGGGMKTKTTISTHPGPGGKTRVLVEVDPKKGLLTWRDPSDPSATTVVPLGSAGGSAGGSAGG [r7_992_JUSTAS],0.511 ± 0.23 kcal/mol,-0.446 ± 0.41 kcal/mol
SAGGSAGGSAGGGMPVPPVEVVEVSEEVRPLPPSSDKTVRRVTRTLPDGSTLTFEEPPESAGGSAGGSAGGS [r10_945_JUSTAS],0.459 ± 0.04 kcal/mol,0.064 ± 0.062 kcal/mol
SAGGSAGGSAGGGPMIYTEETVEEVVKVGEKSIKRTVTTTKVEVPGKPGVVLETKVDWGGSAGGSAGGSAGG [r7_795_JUSTAS],0.837 ± 0.024 kcal/mol,0.312 ± 0.092 kcal/mol
SAGGSAGGSAGGGSMDELPEIEEIAYVTDPATGAVTTVPASQVPEVLASTNNTVTIRPVSAGGSAGGSAGGS [r10_1121_JUSTAS],0.363 ± 0.073 kcal/mol,< -1 kcal/mol
SAGGSAGGSAGGKIEIDNIERFRPPNGNRYYKMTIRVEGNGKEREIWAPADDADNFKIESAGGSAGGSAGGS [r10_326_TrROS],-0.0266 ± 0.22 kcal/mol,-0.474 ± 0.25 kcal/mol
SAGGSAGGSAGGKKININVPAEEMTEEEIKKLIKNLPPDMPIEIEIQPVPPPPPPPPGDKSAGGSAGGSAGG [r7_979_TrROS],-0.851 ± 0.63 kcal/mol,< -1 kcal/mol
SAGGSAGGSAGGMIIVPVVTEETVDVTFRKTPEGVWEPVGPQTITTTTTLTIDPTKGRLSAGGSAGGSAGGS [r10_93_JUSTAS],0.135 ± 0.43 kcal/mol,-0.443 ± 0.37 kcal/mol
SAGGSAGGSAGGMKPGEVVLIYVERSYYDPEKGPLTPRNARYELLNYKPLPLKPKDPKVLSAGGSAGGSAGG [r7_522_JUSTAS],-0.3 ± 0.26 kcal/mol,-0.516 ± 0.16 kcal/mol
SAGGSAGGSAGGMKPQPIKVTVERHFPDGTVELEELVFPSPEEVEKFLKENPDWTVVEVESAGGSAGGSAGG [r11_802_JUSTAS],2.6 ± 0.081 kcal/mol,3.4 ± 0.22 kcal/mol
SAGGSAGGSAGGMPPVEIVEIVNSPGKNPVIVLDPATGEPRLIEVPPDVTLTPEMARRESAGGSAGGSAGGS [r10_844_JUSTAS],0.838 ± 0.066 kcal/mol,0.0501 ± 0.2 kcal/mol
SAGGSAGGSAGGMSTVVEESFYPEERVLRRTTTTVEEEGVTTEPSVYTVEPGDPNVLTPASAGGSAGGSAGG [r7_866_JUSTAS],0.0822 ± 0.22 kcal/mol,-0.434 ± 0.25 kcal/mol
SAGGSAGGSAGGMVRTLDLPNLSEEEIEEIIKKNPNEVYEITFRPPNGPEVTKTIPTHHSAGGSAGGSAGGS [r10_408_JUSTAS],0.84 ± 0.081 kcal/mol,0.524 ± 0.18 kcal/mol
SAGGSAGGSAGGMYIPGDLVEWVSPVGDKWRVGLIGKPQTFDWKDIPAPSNENIVFVPGSAGGSAGGSAGGS [r10_665_TrMRF],-0.392 ± 0.29 kcal/mol,< -1 kcal/mol
SAGGSAGGSAGGNPVYRTRAEILETVPVGEDETVWLPGTAAPVSPSTTVLLARVYSVPADSAGGSAGGSAGG [r11_793_TrMRF],-0.355 ± 0.27 kcal/mol,< -1 kcal/mol
SAGGSAGGSAGGPFFMPEQKGTIPADELQKKGGNLTSVEIKVRPWMMELEIEIVYPPGDKSAGGSAGGSAGG [r7_116_TrROS],1.14 ± 0.36 kcal/mol,0.0937 ± 0.51 kcal/mol
SAGGSAGGSAGGPIEEILASLPPNATVKVSRVVKLTTPDGSLSSIEVEEVITVKKPEKALSAGGSAGGSAGG [r11_347_JUSTAS],0.655 ± 0.02 kcal/mol,0.287 ± 0.13 kcal/mol
SAGGSAGGSAGGPIVLKFKTKEEAEEFAKKLKKEIPNIKEVKIEEDPETGEYYLVVVNDSAGGSAGGSAGGS [r10_544_TrMRF],4.86 ± 0.17 kcal/mol,5 ± 0.28 kcal/mol
SAGGSAGGSAGGPMYTVHTETFTTLEPGAGKRIVTTRTTNPATGATATTTTVIPLEPEALSAGGSAGGSAGG [r17_153_JUSTAS],-0.555 ± 0.39 kcal/mol,< -1 kcal/mol
SAGGSAGGSAGGPPVLTVTRYPPTPYLTVTLPGGRPVVLPVHPDTPPSDVLRLARELTASAGGSAGGSAGGS [r10_33_TrMRF],-0.163 ± 0.26 kcal/mol,< -1 kcal/mol
